Source: the supplement of paper PMC10567573

B1: TRIM55 (parent)
chain: ICPICLEMFTKPVVILPCQHNLCR

Variants of: B1
Assay: protein stability index of a GFP-peptide fusion (GPS, HEK-293T) (PSI 1-6); higher = more stable
Settings: c terminus: a fixed tail appended
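Also: lentivirally expressed fusions sorted by FACS into six bins by GFP to DsRed ratio, PSI derived from sequencing read proportions per bin multiplied by bin number.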

Row | Variant | protein stability index
1 | ICPICLEMFTKPVVILPCTHNLCR [Q19T] | 1.98
2 | ICPICLEMFTKPVVILPCVHNLCR [Q19V] | 2.18
3 | ICPICLEMFTKPVVILPCWHNLCR [Q19W] | 1.61
4 | ICPICLEMFTKPVVILPCYHNLCR [Q19Y] | 2.31
5 | ICPICLEMFTKPVVILPCQANLCR [H20A] | 2.22
6 | ICPICLEMFTKPVVILPCQCNLCR [H20C] | 2.23
7 | ICPICLEMFTKPVVILPCQDNLCR [H20D] | 2.14
8 | ICPICLEMFTKPVVILPCQENLCR [H20E] | 1.68
9 | ICPICLEMFTKPVVILPCQFNLCR [H20F] | 2.77
10 | ICPICLEMFTKPVVILPCQGNLCR [H20G] | 2.08
11 | ICPICLEMFTKPVVILPCQINLCR [H20I] | 1.45
12 | ICPICLEMFTKPVVILPCQKNLCR [H20K] | 1.87
13 | ICPICLEMFTKPVVILPCQLNLCR [H20L] | 1.91
14 | ICPICLEMFTKPVVILPCQMNLCR [H20M] | 1.54
15 | ICPICLEMFTKPVVILPCQNNLCR [H20N] | 1.88
16 | ICPICLEMFTKPVVILPCQPNLCR [H20P] | 2.23
17 | ICPICLEMFTKPVVILPCQQNLCR [H20Q] | 2.2
18 | ICPICLEMFTKPVVILPCQRNLCR [H20R] | 1.45
19 | ICPICLEMFTKPVVILPCQSNLCR [H20S] | 2.12
20 | ICPICLEMFTKPVVILPCQTNLCR [H20T] | 1.54
21 | ICPICLEMFTKPVVILPCQVNLCR [H20V] | 1.34
22 | ICPICLEMFTKPVVILPCQWNLCR [H20W] | 1.27
23 | ICPICLEMFTKPVVILPCQYNLCR [H20Y] | 1.52
24 | ICPICLEMFTKPVVILPCQHALCR [N21A] | 2.73

Row | Variant | protein stability index
25 | ICPICLEMFTKPVVILPCQHCLCR [N21C] | 2.2
26 | ICPICLEMFTKPVVILPCQHDLCR [N21D] | 2.23
27 | ICPICLEMFTKPVVILPCQHELCR [N21E] | 2.54
28 | ICPICLEMFTKPVVILPCQHFLCR [N21F] | 2.53
29 | ICPICLEMFTKPVVILPCQHGLCR [N21G] | 2.71
30 | ICPICLEMFTKPVVILPCQHHLCR [N21H] | 2.39
31 | ICPICLEMFTKPVVILPCQHILCR [N21I] | 2.04
32 | ICPICLEMFTKPVVILPCQHKLCR [N21K] | 1.74
33 | ICPICLEMFTKPVVILPCQHLLCR [N21L] | 2.01
34 | ICPICLEMFTKPVVILPCQHMLCR [N21M] | 2.29
35 | ICPICLEMFTKPVVILPCQHPLCR [N21P] | 2.52
36 | ICPICLEMFTKPVVILPCQHQLCR [N21Q] | 2.17
37 | ICPICLEMFTKPVVILPCQHRLCR [N21R] | 2.31
38 | ICPICLEMFTKPVVILPCQHSLCR [N21S] | 2.93
39 | ICPICLEMFTKPVVILPCQHTLCR [N21T] | 2.39
40 | ICPICLEMFTKPVVILPCQHVLCR [N21V] | 2.35
41 | ICPICLEMFTKPVVILPCQHWLCR [N21W] | 2.19
42 | ICPICLEMFTKPVVILPCQHYLCR [N21Y] | 2.48
43 | ICPICLEMFTKPVVILPCQHNACR [L22A] | 2.36
44 | ICPICLEMFTKPVVILPCQHNCCR [L22C] | 2.04
45 | ICPICLEMFTKPVVILPCQHNDCR [L22D] | 2.64
46 | ICPICLEMFTKPVVILPCQHNECR [L22E] | 2.45
47 | ICPICLEMFTKPVVILPCQHNFCR [L22F] | 1.99
48 | ICPICLEMFTKPVVILPCQHNGCR [L22G] | 2.44

Row | Variant | protein stability index
49 | ICPICLEMFTKPVVILPCQHNHCR [L22H] | 2.48
50 | ICPICLEMFTKPVVILPCQHNICR [L22I] | 2.31
51 | ICPICLEMFTKPVVILPCQHNKCR [L22K] | 2.38
52 | ICPICLEMFTKPVVILPCQHNMCR [L22M] | 3.14
53 | ICPICLEMFTKPVVILPCQHNNCR [L22N] | 2.54
54 | ICPICLEMFTKPVVILPCQHNPCR [L22P] | 2.29
55 | ICPICLEMFTKPVVILPCQHNQCR [L22Q] | 2.72
56 | ICPICLEMFTKPVVILPCQHNRCR [L22R] | 2.51
57 | ICPICLEMFTKPVVILPCQHNSCR [L22S] | 2.4
58 | ICPICLEMFTKPVVILPCQHNTCR [L22T] | 2.17
59 | ICPICLEMFTKPVVILPCQHNVCR [L22V] | 2.55
60 | ICPICLEMFTKPVVILPCQHNWCR [L22W] | 2.44
61 | ICPICLEMFTKPVVILPCQHNYCR [L22Y] | 2.08
62 | ICPICLEMFTKPVVILPCQHNLAR [C23A] | 1.72
63 | ICPICLEMFTKPVVILPCQHNLDR [C23D] | 1.97
64 | ICPICLEMFTKPVVILPCQHNLER [C23E] | 2.65
65 | ICPICLEMFTKPVVILPCQHNLFR [C23F] | 1.73
66 | ICPICLEMFTKPVVILPCQHNLGR [C23G] | 2.01
67 | ICPICLEMFTKPVVILPCQHNLHR [C23H] | 2.92
68 | ICPICLEMFTKPVVILPCQHNLIR [C23I] | 1.82
69 | ICPICLEMFTKPVVILPCQHNLKR [C23K] | 2.03
70 | ICPICLEMFTKPVVILPCQHNLLR [C23L] | 2.28
71 | ICPICLEMFTKPVVILPCQHNLMR [C23M] | 2.43
72 | ICPICLEMFTKPVVILPCQHNLNR [C23N] | 2.13

Row | Variant | protein stability index
73 | ICPICLEMFTKPVVILPCQHNLPR [C23P] | 2.24
74 | ICPICLEMFTKPVVILPCQHNLQR [C23Q] | 2.21
75 | ICPICLEMFTKPVVILPCQHNLRR [C23R] | 2.47
76 | ICPICLEMFTKPVVILPCQHNLSR [C23S] | 1.93
77 | ICPICLEMFTKPVVILPCQHNLTR [C23T] | 2.64
78 | ICPICLEMFTKPVVILPCQHNLVR [C23V] | 2.46
79 | ICPICLEMFTKPVVILPCQHNLWR [C23W] | 2.05
80 | ICPICLEMFTKPVVILPCQHNLYR [C23Y] | 2.25
81 | ICPICLEMFTKPVVILPCQHNLCA [R24A] | 1.92
82 | ICPICLEMFTKPVVILPCQHNLCC [R24C] | 2.27
83 | ICPICLEMFTKPVVILPCQHNLCD [R24D] | 2.27
84 | ICPICLEMFTKPVVILPCQHNLCE [R24E] | 2.11
85 | ICPICLEMFTKPVVILPCQHNLCF [R24F] | 2.01
86 | ICPICLEMFTKPVVILPCQHNLCG [R24G] | 2.41
87 | ICPICLEMFTKPVVILPCQHNLCH [R24H] | 2.4
88 | ICPICLEMFTKPVVILPCQHNLCI [R24I] | 2.24
89 | ICPICLEMFTKPVVILPCQHNLCK [R24K] | 2.32
90 | ICPICLEMFTKPVVILPCQHNLCL [R24L] | 2.11
91 | ICPICLEMFTKPVVILPCQHNLCM [R24M] | 2.15
92 | ICPICLEMFTKPVVILPCQHNLCN [R24N] | 2.95
93 | ICPICLEMFTKPVVILPCQHNLCP [R24P] | 2.32
94 | ICPICLEMFTKPVVILPCQHNLCQ [R24Q] | 2.57
